{"source": "the supplement of paper PMC6755084", "parents": {"B1": {"name": "minF1; a variant is named by its letters at N, in order (parent)", "chain": "GAGACCGCAACTGAAAAGTTGTTNNNNAANNNNGGNTNNATTTCTGCACGTAGAAGCAAAAGGC"}}}
{"variants_of": "B1", "assay": "fraction ligated after 30 min (ligated reads / total reads); higher = more ligase activity", "conditions": "with F1*subA RNA substrate (template-directed ligation), 42 °C", "description": "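Chip-synthesised pool of minF1 ligase ribozyme variants (single and double substitutions, single to quadruple deletions, bulge and P2 designed variants) was transcribed with T7 and reacted as a pool with excess substrate F1*subA for 30 min at 42 C in 50 mM EPPS pH 8.5, 25 mM MgCl2. Ligated and unligated RNAs were separated by PAGE, barcoded by RT and deep sequenced; fraction ligated = ligated reads / total reads, relative activity = FL / FL of wild-type minF1 (0.76); sequencing FL correlated with PAGE (R2 = 0.98). Sequences are the DNA template of the ribozyme.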"}
{"variant": "ATCAAATAGTA A28G", "fraction ligated": 0.00232}
{"variant": "CGAAGATGTGA A28T A29G", "fraction ligated": 0.00384}
{"variant": "ATCAATATGTG A28G", "fraction ligated": 0.00686}
{"variant": "ATAGGATGTGA", "fraction ligated": 0.00396}
{"variant": "AGAAGGAGTGA T23A A29T", "fraction ligated": 0.00185}
{"variant": "ATAGGATGTGA A28T A29G", "fraction ligated": 0.0105}
{"variant": "CGAAGGATTGA T23A A29T", "fraction ligated": 0.0076}
{"variant": "ATCAAAATTGA A28G", "fraction ligated": 0.00208}
{"variant": "ATCAAGGAGTA A28G", "fraction ligated": 0.00255}
{"variant": "ATAATGGTTGA", "fraction ligated": 0.00319}
{"variant": "ATCAAATAGTG A28G G34T", "fraction ligated": 0.0037}
{"variant": "ATAGTGGAGTA G34T", "fraction ligated": 0.00645}
{"variant": "ATAGATGAGTA G34T", "fraction ligated": 0.0034}
{"variant": "ATCAAATGGTA A28G", "fraction ligated": 0.0012}
{"variant": "ATAGATGAGTG G34T", "fraction ligated": 0.00408}
{"variant": "ATAGAGAGTGA", "fraction ligated": 0.000691}
{"variant": "ATAAGGAGTGA A29T", "fraction ligated": 0.00469}
{"variant": "ATAAGGATTGA", "fraction ligated": 0.0033}
{"variant": "ATCAAAGAGTT A28G G34T T37G", "fraction ligated": 0.00139}
{"variant": "ATAGGGATTGA", "fraction ligated": 0.00436}
{"variant": "ATAGTGTGTGA", "fraction ligated": 0.0025}
{"variant": "ATAGAGGAGTG G34T", "fraction ligated": 0.0028}
{"variant": "ATAGAGATGTG", "fraction ligated": 0.00764}
{"variant": "ATAGAGATGTA", "fraction ligated": 0.00327}
{"variant": "AGAAGATGTGA A29G", "fraction ligated": 0.00203}
{"variant": "AGAAGATGTGA A29T", "fraction ligated": 0.00448}
{"variant": "ATAGTGGTGTG", "fraction ligated": 0.00637}
{"variant": "ATAGTGGTGTA", "fraction ligated": 0.0012}
{"variant": "TGAAGATGTGA A28T A29G", "fraction ligated": 0.00314}
{"variant": "ATAGGGAGTGA A29T", "fraction ligated": 0.00713}
{"variant": "ATCAGATGTGA A28G A29T", "fraction ligated": 0.00278}
{"variant": "ATCAGATGTGA A28G A29G", "fraction ligated": 0.00309}
{"variant": "ATCAAAATGTG A28G", "fraction ligated": 0.00629}
{"variant": "ATCAAGGTGTA A28G", "fraction ligated": 0.00466}
{"variant": "ATCAGATGTGA", "fraction ligated": 0.00333}
{"variant": "ATCAATGAGTG A28G G34T", "fraction ligated": 0.00581}
{"variant": "ATCAAATGGTG A28G G34A", "fraction ligated": 0.00551}
{"variant": "ATCAAATGGTG A28G G34T", "fraction ligated": 0.0032}
{"variant": "AGAAGATGTGA T23A A29G", "fraction ligated": 0.00362}
{"variant": "AGAAGATGTGA T23A A29T", "fraction ligated": 0.00161}
{"variant": "ATCAGGATTGA", "fraction ligated": 0.00379}
{"variant": "ATAAGATGTGA", "fraction ligated": 0.00253}
{"variant": "ATAGAGGTTGA", "fraction ligated": 0.00247}
{"variant": "ATAGAGTGTGA", "fraction ligated": 0.00554}
{"variant": "ATCAATGGGTT G34A T37G A40G", "fraction ligated": 0.00153}
{"variant": "CGAAGGATGTA T23A A29T", "fraction ligated": 0.0054}
{"variant": "ATCAAGATTGA A28G", "fraction ligated": 0.00251}
{"variant": "ATCAATGATGA A28G", "fraction ligated": 0.000976}
{"variant": "TGAAGATGTGA T23A A28T A29G", "fraction ligated": 0.00603}
{"variant": "ATAGATGATGA", "fraction ligated": 0.00363}
{"variant": "ATAGGGTGTGA", "fraction ligated": 0.00288}
{"variant": "ATCAAAGGGTA A28G", "fraction ligated": 0.00291}
{"variant": "AGAAGGATGTA T23C A29T", "fraction ligated": 0.00442}
{"variant": "ATCAAAGGGTT A28G G34T T37G", "fraction ligated": 0.00171}
{"variant": "ATCAATGTGTG A28G", "fraction ligated": 0.00324}
{"variant": "ATCAATGGGTA G34T", "fraction ligated": 0.0029}
{"variant": "ATCAATGGGTA G34A", "fraction ligated": 0.00177}
{"variant": "ATCAAGGAGTA G34T", "fraction ligated": 0.00413}
{"variant": "ATCAAATGGTT A28G G34A T37G", "fraction ligated": 0.0014}
{"variant": "ATAGATGTTGA", "fraction ligated": 0.00174}
{"variant": "AGAAGATGTGA A28T A29G", "fraction ligated": 0.00743}
{"variant": "ATCAAAGGGTT A28G G34A T37G A40G", "fraction ligated": 0.000889}
{"variant": "AGAAGGTGTGA T23C A29T", "fraction ligated": 0.00383}
{"variant": "ATCAATGGGTT A28G G34A T37G", "fraction ligated": 0.00259}
{"variant": "ATCAATGAGTT A28G G34T T37G", "fraction ligated": 0.00246}
{"variant": "ATCAAATGGTT A28G G34A T37G A40G", "fraction ligated": 0.000551}
{"variant": "AGAAGATGTGA T23A A28T A29G", "fraction ligated": 0.00449}
{"variant": "AGAAGGATGTA T23A A29T", "fraction ligated": 0.00442}
{"variant": "ATCAGGATGTA A29T", "fraction ligated": 0.00407}
{"variant": "ATCAATTGTGA", "fraction ligated": 0.00256}
{"variant": "ATCAAATGGTT A28G G34T T37G A40G", "fraction ligated": 0.000795}
{"variant": "ATCAAGGATGA", "fraction ligated": 0.000429}
{"variant": "ATCAATGGGTT G34A G35T T37G", "fraction ligated": 0.00168}
{"variant": "AGAAGGTGTGA T23A A29T", "fraction ligated": 0.00188}
{"variant": "ATAGATGGGTG G34T", "fraction ligated": 0.00668}
{"variant": "ATAGATGGGTG G34A", "fraction ligated": 0.00708}
{"variant": "ATCAAATATGA A28G", "fraction ligated": 0.00291}
{"variant": "ATAATGGAGTA G34T", "fraction ligated": 0.00307}
{"variant": "ATCAAGGAGTT G34T T37G A40G", "fraction ligated": 0.00198}
{"variant": "CGAAGGAGTGA A29T", "fraction ligated": 0.00331}
{"variant": "TGAAGGAGTGA A29T", "fraction ligated": 0.000652}
{"variant": "TGAAGGTGTGA T23A A29T", "fraction ligated": 0.00263}
{"variant": "ATCAATGTTGA A28G", "fraction ligated": 0.0018}
{"variant": "AGAAGGATGTA A29T", "fraction ligated": 0.00434}
